# Values joined by “and” are separate entries in the source; they are usually repeats but may differ in a detail not shown here. Equal values may be shown once.
# B1: anti-NRR2: affinity matured form of Antibody D, phage library-derived human anti-Notch2 NRR monoclonal antibody (antibody, V domains shown)
# VH: EVQLVESGGGLVQPGGSLRLSCAASGYTFSSYGMSWVRQAPGKGLEWVSYIYPYSGATYYADSVKGRFTISADTSKNTAYLQMNSLRAEDTAVYYCARHSGYYRISSAMDVWGQGTLVTVSA
# VL: DIQMTQSPSSLSASVGDRVTITCRASQNIKRFLAWYQQKPGKAPKLLIYGASTRESGVPSRFSGSGSGTDFTLTISSLQPEDFATYYCQQYYRSPHTFGQGTKVEIKR
# How the values were obtained:
# [1] = tested on: other three non-targeted receptors; assay: Binding to non-targeted Notch receptors (SPR, ELISA, FACS); design: species or system human, mouse; details: ELISA and FACS
# Procedure: Binding affinities of anti-Notch2 NRR antibodies were measured by Surface Plasmon Resonance (SRP) using a BIAcore™-3000 instrument. Anti-Notch2 NRR human IgGs were captured by mouse anti-human IgG coated on the CM5 sensor chip to achieve approximately 200 response units (RU). For kinetics measurements, two-fold serial dilutions of human and mouse Notch2 NRR (3.9 nM to 500 nM) were injected in PBT buffer (PBS with 0.05% Tween 20) at 25° C. with a flow rate of 30 μl/min. Association rates (kon) and dissociation rates (koff) were calculated using a simple one-to-one Langmuir binding model (BIAcore Evaluation Software version 3.2). The equilibrium dissociation constant (KD) was calculated as the ratio koff/kon.
# Anti-Flag antibody was used to capture Flag-Tagged NRR protein from all four Notch receptors in a black walled, high binding plate (Greiner). NRR antibody and E25 control antibodies were bound to the NRR proteins and washed away with PBS. An Alkaline Phosphate conjugated anti-human (H+L) secondary antibody (Jackson ImmunoResearch) was used to detect bound anti-NRR and E25. Unbound secondary was washed away and AP was detected with PNPP substrate (Pierce). […]
# DB DLBCL cell line = assay: Growth of DB diffuse large B-cell lymphoma cell line in vitro; format: cell-based
# Procedure: Diffuse large B-cell lymphoma (DLBCL) is the most common type of non-Hodgkin's lymphoma. […] (See Lee et al., Cancer Sci. 100:920-926, 2009.) However, how DLBCL cells would respond to Notch2 inhibition was not known. Therefore, we investigated the effect of anti-NRR2 on five DLBCL cell lines. The DLBCL lines listed on the right of FIG. 26 were grown in replicates for three days in wells of a 384-well plate. The cell cultures included the indicated concentrations of anti-NRR2 (referred to as “anti-Notch2” in FIGS. 26 and 27), which corresponded to three-fold serial dilutions starting at 10 μg/ml. Growth was assessed using Cell Titer Glo assays (Promega), plotted as the percentage of cell viability relative to treatment with an isotype control antibody. The data points in FIG. 26 represent average values obtained from individual wells for each cell line at the indicated antibody concentrations. […] The DB line was grown in wells of a 12-well plate, and the cultures were treated with DMSO, the gamma-secretase inhibitor DAPT, anti-gD isotype control antibody or anti-NRR2 at the indicated concentrations. Growth was assessed by counting viable cells (Vi-CELL, Beckman Coulter, Fullerton, Calif.) at days 2, 3 and 5 after inoculating and treating the cultures. Values represent the mean of measurements from three independent cultures, plus/minus the standard deviation.
# [2] = tested on: splenic marginal zone B (MZB) cells; assay: Marginal zone B cell analysis in Balb/c mice; format: in vivo, mouse; details: 5 mg/kg, spleen, CD21/CD23 FACS, three animals
# Procedure: Balb/c mice were injected four times every four days with 5 mg/kg of α-gD isotype control, α-NRR1 or α-NRR2, and cells were harvested from the thymus or spleen on day 13, one day after the fourth dose. (A) Thymus weight measurements. Thymus weights (in mg) are expressed relative to total body weight (in g). Values represent the mean plus standard deviation for three mice per group. (B) Thymus cell count. (C) CD4 and CD8 FACS to identify CD4^+/CD8^+ double-positive T cells. Numbers represent the percentage of thymic cells in the double-negative, single-positive and double-positive populations. […] (D) CD21 and CD23 FACS to identify marginal zone B cells. Numbers represent the mean percentages ±standard deviation (from three animals) of cells within the MZB gate, which is boxed; p values are also noted; representative dot plots from one of the three animals in each group are graphed.
# Splenocytes were isolated from the mice and were stained for FACS with B220-PerCP, CD23-PE and CD21-FITC (BD Biosciences) as previously described (Saito, et al., Immunity, Vol. 18, 675-685, May 2003).
# [3] = tested on: Notch1-NRR / Notch2 NRR chimeric proteins; assay: Epitope mapping: plate binding to Notch1-NRR/Notch2 NRR chimeric proteins fused to alkaline phosphatase; details: domain swap
# Procedure: The indicated NRR protein fragments (dark blue, Notch1 sequences; light blue, Notch2 sequences) were expressed as secreted proteins fused to alkaline phosphatase to enable rapid measurements of antibody binding in a plate-based assay. […] Antibody binding was assessed by measuring alkaline phosphatase activity that remained bound to the plate. […] (B) Structure of human Notch NRR1. NRR1 is shown as a C-alpha cartoon. The three calcium ions in the LNR motifs are shown as spheres. The position of the S2 cleavage site is marked with an arrow. (C) Superposition of NRR1 on NRR2 (chain A from pdb code 2OO4) based on structurally conserved atoms. NRR1 (shaded) and NRR2 (white) are shown as C-alpha traces. (D) Open-book view of the interface between NRR1 (left) and α-NRR1 Fab (right, border between heavy and light chains shown as a black dashed line). The extent to which the solvent accessible surface area is buried by complex formation is indicated.
# Synthetic Notch1 and Notch2 NRR sequences were designed with unique restriction sites at junctions between the five domains of the NRR-LNR-A; LNR-B; LNR-C; HD-N; and HD-C—and produced by Blue Heron Technology (Bothell, Wash.). Swapping various domains between the two synthetic sequences, using the engineered restriction sites, generated chimeric NRR proteins. The chimeric clones were assembled in a modified pUC19 vector and transferred to a SEAP containing vector, pCSC.AP, for expression. AP-tagged NRR proteins were produced by transfection of 293T cells. After 72 hr culture, the conditioned media was collected, cleared by centrifugation, and tested for AP activity using the Phospha-Light System (Applied Biosystems, Bedford, Mass.). The AP activity in each sample was normalized and an ELISA was performed to test the ability of α-NRR1 or α-NRR2 to bind the chimeric NRR proteins. The ELISA was performed as follows: either α-NRR1 or α-NRR2 was captured by a plate bound α-Fc antibody in 96-well format and incubated with the conditioned media overnight. The plate was washed to remove unbound protein, and the captured protein was tested for AP activity using the Phospha-Light System.
molecule,measurement,setting,value
B1,binding to human or mouse sequences of the other three non-targeted receptors,[1],no binding
same,growth over time (viable cell counts),"DB DLBCL cell line; days 2, 3 and 5",suppresses the growth
same,growth (cell viability relative to isotype control),"DB DLBCL cell line; three days, three-fold dilutions from 10 μg/ml",strongly inhibited
same,percentage of cells within the MZB gate (mean ± standard deviation),[2],0.97% and 0.97+/−0.45%
same,binding to chimera containing only the LNR-A and HD-C subdomains from NRR2,[3],weak but detectable binding
same,binding to chimera with LNR-A of NRR1 in the NRR2 backbone,[3],completely disrupted
same,binding to chimeras C.Hn and BC (only three subdomains from NRR2),[3],full binding
same,binding to chimeras with swaps of LNR-B or LNR-C in the NRR2 backbone,[3],no effect

# — US8404239B2, “Anti-Notch2 NRR antibodies” (Genentech, Inc., priority 2008, dated 2013)
